These results are taken from KR20220012314A (dated 2022).

The target in assay [1] is T1, 사이노몰거스 원숭이 BCMA-Fc 단백질 (아크로 바이오시스템즈, Cat#BCA-C5253) (cynomolgus monkey, UniProt A0A2K5UD97 1-53).
T1 construct: also called 사이노몰거스 BCMA-Fc; 사이노몰거스 BCMA; not shown: Fc tag
The experiment in a line: SPR (Biacore), cynomolgus BCMA. (Surface plasmon resonance follows binding to a sensor surface in real time, without labels.)

In assay [2] the target is T2, 재조합 인간 BCMA-his 단백질 (Cat#BCA-H522Y, 아크로 바이오시스템즈) (human, UniProt Q02223 1-54, biotin-labelled in the capture ELISA and the benchmark-blocking ELISA).
T2 construct: Bought protein, MW 7.8 kDa as printed; not shown: his tag
T2 sequence: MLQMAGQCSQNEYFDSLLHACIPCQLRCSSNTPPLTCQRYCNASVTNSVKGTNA
As to the kind of experiment: SPR (Biacore T200), antibody captured on chip, human BCMA-his in flow, 1:1 Langmuir fit.

Assay [3] deals with T2, 재조합 인간 BCMA-his 단백질 (Cat#BCA-H522Y, 아크로 …). The experiment in a line: SPR (Biacore), human BCMA.
Assay [4] shares this target. The experiment in a line: capture ELISA with biotin-labelled human BCMA-his. (ELISA stands for enzyme-linked immunosorbent assay.)
For assay [5] the target is unchanged. The experiment in a line: competition ELISA: BM coated, antibody titrated and premixed with biotin-labelled human BCMA-his 0.22 nM; competitor BM (self).
Assay [6] shares this target. As to the kind of experiment: competition ELISA: BCMA-his coated, antibody titrated, then biotin-labelled human BAFF-Fc; competitor BAFF-Fc.
For assay [7] the target is unchanged. As to the kind of experiment: competition ELISA: BCMA-his coated, antibody titrated, then biotin-labelled human BAFF-Fc 0.25 nM; competitor BAFF-Fc.
Assay [8] has the same target. As to the kind of experiment: capture ELISA: antibody captured on plate, biotin-labelled human BCMA-his 0.28 nM in solution.
The target is the same in assay [9]. The experiment in a line: competition ELISA: BM coated, antibody titrated and premixed with biotin-labelled human BCMA-his; competitor BM (self).
For assay [10], the target named is T3, 인간 골수종 세포주 U266 표면의 인간 BCMA (human, UniProt Q02223 1-184).
T3 construct: whole, on cells; also called U266 세포; FACS 세포 결합
T3 sequence (looked up): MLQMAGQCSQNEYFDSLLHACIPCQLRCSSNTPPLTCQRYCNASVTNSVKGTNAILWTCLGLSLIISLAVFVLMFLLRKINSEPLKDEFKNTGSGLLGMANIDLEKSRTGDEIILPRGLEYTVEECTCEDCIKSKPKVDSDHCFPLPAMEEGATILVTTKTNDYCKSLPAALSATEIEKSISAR
The experiment in a line: flow cytometry on U266 cells.

Assay [11] has as its target T1, 사이노몰거스 원숭이 BCMA-Fc 단백질 (아크로 바이오시스템즈, …). The experiment in a line: SPR (Biacore T200), antibody captured on chip, cynomolgus BCMA-Fc in flow, 1:1 Langmuir fit.
Assay [12] concerns the target T2, 재조합 인간 BCMA-his 단백질 (Cat#BCA-H522Y, 아크로 …). The experiment in a line: competition ELISA: BM coated, antibody titrated and premixed with biotin-labelled human BCMA-his 0.22 nM; competitor BM.

For orientation: Kd means the constant that tells how readily two partners part at equilibrium. Low readings indicate tighter binding, high ones weaker binding. As a reminder, the koff is the first-order rate constant of dissociation. Usually kon stands for the rate constant with which the complex forms. The low end stands for slow association, the high end for fast association. Usually EC50 stands for the concentration giving half of the maximal effect. Higher therefore signals lower potency in that assay. The IC50 is the concentration at which inhibition is half-maximal.

Values joined by “and” are separate entries in the source; they are usually repeats but may differ in a detail not shown here. Equal values may be shown once.

T1 sequence (A0A2K5UD97 entry or part of it): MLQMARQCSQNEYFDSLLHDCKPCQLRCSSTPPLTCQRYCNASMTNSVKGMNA

B1: BCMA 벤치마크 (GSK2857916의 BCMA-결합 부분을 함유하는 항체) (antibody, human IgG1, kappa, V domains shown)
VH: QVQLVQSGAEVKKPGSSVKVSCKASGGTFSNYWMHWVRQAPGQGLEWMGATYRGHSDTYYNQKFKGRVTITADKSTSTAYMELSSLRSEDTAVYYCARGAIYDGYDVLDNWGQGTLVTVSS
VL: DIQMTQSPSSLSASVGDRVTITCSASQDISNYLNWYQQKPGKAPKLLIYYTSNLHSGVPSRFSGSGSGTDFTLTISSLQPEDFATYYCQQYRKLPWTFGQGTKLEIKR
notes: also called BM; BCMA-mab1
B1: the values for the Kd in assay [1], in assay [2] and in assay [3] were 0.599 nM, 0.742 nM and 0.742 nM, respectively. Also, in [2], the koff was 0.000245 s⁻¹. Besides, the kon in [2] was 330000 M⁻¹ s⁻¹. Moreover, the EC50 in assay [4] was 0.71 nM and 0.93 nM; in assay [8] it was 1.27 nM and 1.11 nM. Moreover, the IC50 in [5] was 1.93 nM and 2.64 nM; in assay [6] it was 3.64 nM and 3.59 nM; in assay [7], 9.61 nM and 10.7 nM; in assay [9] it was 2.23 nM and 1.64 nM.

B2: 마우스 항-BCMA 단일클론 항체 B1A1 (antibody, V domains shown)
VH: DVQLQESGPGLVKPSQSLSLTCSVTGYSITSAYYWNWIRQFPGNKLEWMGYIRYDGSNNYNPSLKNRISITRDTSKNQFFLKLNSVTAEDTATYYCAPYDYDEVFAYWGQGTLVTVSA
VL: DIVMTQSHKFMSTSVGDRVSITCKASQEVSTAVAWYQQKPGQSPKLLIYWASMRHTGVPDRFTGSGSGTDYTLIITSVQAEDLALYYCQQYYSTPLTFGAGTKLELK
Turning to B2, the EC50 in [10] came to 2.66 nM; in assay [8], 1.06 nM. Moreover, the Kd worked out at 0.636 nM in assay [2] and 9.08 nM in assay [11]. The koff in assay [2] was 0.00161 s⁻¹; in assay [11], 0.0148 s⁻¹. For the same molecule, the kon in [2] came to 2.45e+06 M⁻¹ s⁻¹; in [11], 1.63e+06 M⁻¹ s⁻¹. The IC50 in assay [12] came out at 1.91 nM; in assay [7], 7 nM.
